Assay [1] concerns the target T1, human TMEM106B (human, UniProt Q9NUM4 2-274).
T1 construct: Full-length, on transiently transfected HEK293 cells, or natively expressed on HeLa, U251 and A549 cells; also called huTMEM106B; huTMEM
In words: FACS A549.

Assay [2] concerns the target T1, human TMEM106B. Put plainly: FACS HeLa.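 Also: flow cytometry of cells incubated with hybridoma supernatant or purified antibody at 10 µg/ml for 1 h on ice, propidium iodide–positive dead cells gated out.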
Experimental: All cells were cultured in either T75 or T150 flasks. […] The enzyme was quenched by addition of fresh media, and the cells were then distributed into 96-well plates for FACS analysis.
FACS analysis was performed as follows. Each cell type was aliquoted in 96-well round bottom plates (2x10^5 cells per well), washed once with FACS buffer (PBS + 2% FBS + 1 mM EDTA), and incubated with 50 µL of hybridoma supernatant or purified antibody (10 µg/ml in FACS buffer) on ice for 1 hour. […] Following this secondary incubation, the cells were again washed 2x with ice-cold FACS buffer and resuspended in a final volume of 50 µL of FACS buffer + 0.25 µl/well propidium iodide (Fisher Scientific # BDB556463). Analysis was performed on a FACSCanto system (BD Biosciences) or iQue (Intellicyt), with sort gates drawn to exclude dead (i.e., propidium iodide positive) cells.
Data is presented as mean fluorescence intensity (MFI).
Assay [3] has as its target T1, human TMEM106B. In words: FACS U251.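 Also: flow cytometry of cells exposed to antibody (purified at 10 µg/mL, or hybridoma supernatant) for 1 h on ice, with propidium iodide-positive dead cells gated out.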
The target in assay [4] is T2, mouse TMEM106B (mouse, UniProt Q80X71 2-275).
T2 construct: on transiently transfected HEK293 cells, or natively expressed on mouse Neuro2a cells; also called moTMEM106B; murine TMEM106B
Put plainly: FACS Neuro2a.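 Also: flow cytometry of cells stained with antibody or hybridoma supernatant (purified antibody at 10 µg/ml) for 1 h on ice, propidium iodide–positive dead cells gated out.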

Assay [5] deals with T3, GST (Pierce) (UniProt P08515 1-218 = GST, limits assumed).
T3 construct: control for the GST part of the fusion protein; also called GST protein; Glutathione-S-transferase
In words: ELISA, coated GST. (In general: ELISA stands for enzyme-linked immunosorbent assay.)

Assay [6] concerns the target T1, human TMEM106B. Put plainly: FACS A549, 1 ug/ml.
Assay [7] addresses T1, human TMEM106B. Put plainly: FACS A549, 10 ug/ml.
Assay [8] has as its target T1, human TMEM106B. In words: FACS, HEK293 transfectants.
Assay [9] concerns the target T1, human TMEM106B. Put plainly: FACS HEK+huTMEM, 10 ug/ml.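 Also: purified mouse IgG antibodies at 10 µg/ml bound to HEK293 cells transiently expressing human TMEM106B, measured by flow cytometry as median fluorescence intensity of propidium iodide negative live cells.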
The target of assay [10] is T1, human TMEM106B. Put plainly: FACS, HEK293 transfectants. This is another data set of the same source.
In assay [11] the target is T4, cynomolgus (cyno) TMEM106B (cynomolgus, UniProt Q9NUM4 2-274 (human entry)).
T4 construct: on transiently transfected HEK293 cells
In words: FACS, HEK293 transfectants. In general terms: In flow cytometry, cells or beads pass a laser one at a time.

Assay [12] addresses T2, mouse TMEM106B. In words: FACS, HEK293 transfectants.
In assay [13] the target is T1, human TMEM106B. Put plainly: FACS HEK+huTMEM, 0.1 ug/ml.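 Also: flow cytometry binding of purified mouse IgG antibodies to HEK293 cells transiently expressing TMEM106B, read as median fluorescence intensity with propidium iodide positive dead cells gated out.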
Assay [14] concerns the target T1, human TMEM106B. Put plainly: FACS HEK+huTMEM, 1.0 ug/ml.
Assay [15] deals with T1, human TMEM106B. In words: FACS HEK+huTMEM, 0.01 ug/ml.
Experimental: Purified anti-TMEM106B antibodies were evaluated for their binding affinity to various TMEM106B-expressing cell lines including HEK293 transiently transfected with human/cyno/mouse TMEM106B, as well as HeLa cells and A549 cells. Antibodies tested for this experiment were mouse IgGs purified from hybridoma supernatant. Affinity binding to cells was determined as follows. Briefly, 1x10^5 cells were aliquoted per well in 96-well round bottom plates and incubated with 50 µL of purified anti-TMEM106B antibody at various concentrations (10x dilutions starting at 10 µg/ml) in FACS buffer (PBS + 2% FBS + 1 mM EDTA). […] Sorting was performed on a iQue (Intellicyt), with sort gates drawn to exclude dead (propidium iodide +) cells. Binding data was analyzed using median fluorescent intensity (MFI) and graphed in Prism. Values presented are MFI.
The target in assay [16] is T5, GST-fusion human TMEM106B truncated (human).
T5 construct: also called GST-TMEM106B-truncated protein; GST-TMEM106B (truncated)
In words: epitope binning, array SPR (Community 3, Bin 5).
Experimental: Epitope binning of the anti-TMEM106B antibodies was performed by Carterra (Salt Lake City, Nevada, USA) using a pre-mix epitope binning approach.

The target of assay [17] is T3, GST (Pierce). In words: array SPR, Ab immobilised.

Seven molecules from patent US20230303681A1 (published 2023) can be followed below.
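For fold over negative controls in this document: hybridoma supernatants incubated 30 min on ice with human TMEM106B-expressing HEK293 cells, binding read as anti-mouse-APC median fluorescence on live cells, relative to secondary-antibody-only wells.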
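For fold-change over parental HEK293 in this document: flow cytometry binding of hybridoma supernatants to HEK293 cells transiently expressing human, cyno or mouse TMEM106B, read as anti-mouse-APC median fluorescence, live cells only, 30 min on ice.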

B1: anti-TMEM106B antibody TM-14 (antibody, V domains shown)
VH: QVQLQQSGPELVRPGTSVKVSCKASGYAFTNYLIEWVKQRPGQGLEWIGVINPGGGNTDYSEKFKDKATLTADKSSNTAYIQLSSLTSEDSAVYFCARSPYSSYVGYAVDYWGQGTSVTVSS
VL: DIQMTQSPSSLSASLGERVSLTCRASQDIGSNLNWLQQEPDGTIKRLIYATSSLDSGVPKRFSGSRSGSDYSLTISSLESEDFVVYYCLQYASSPRTFGGGTRLEIK
notes: mouse IgG from hybridoma
Take B1: the MFI was determined as 896 in [1]; 307 in assay [2]; 270 in assay [3]; 300 in assay [4]; 409 in [6]; 438 in [7]. Further, the MFI turned out to be 1190 in assay [9], 364 in [13], 680 in [14] and 314 in assay [15]. Moreover, the binding result is listed as “no binding” in [5] and “no binding (tested: 55 nM antigen)” in assay [16]. Further, in [8], the “fold over negative controls” value was above 2 fold. The “fold-change over parental HEK293” value in [10] was 3.96 fold; in assay [11], 4.56 fold; in assay [12], 1.77 fold.

B2: anti-TMEM106B antibody TM-6 (antibody, V domains shown)
VH: QVQLQQSGAELVKPGASVKLSCKASGYTFTEYTIHWVKQRSGQGLEWIGWFYPGSTYIDYNEKFKDKATLTADKSSSTVYLELSRLTSEDSAVYFCARHEEDYSNWFPFWGQGTLVTVSA
VL: DIQMSQSSSYLSVSLGGRVTITCKASDHINNWLAWYQQKPGNAPRLLISGATSLETGVPSRFSGSGSGKDYTLSITSLQTEDVATYYCQQYWSSPYTFGGGTKLEIK
notes: mouse IgG from hybridoma
On to B2, for which the MFI in assay [1] turned out to be 1100; in assay [2], 520; in assay [3], 304; in assay [4], 371; in assay [6], 418; in assay [7] it was 544. In addition, the MFI in assay [9] came out at 581; in assay [13], 327; in [14], 393; in assay [15], 294. Moreover, the binding result in [5] is “no binding”; in assay [16], “no binding (tested: 55 nM antigen)”. Also, the “fold over negative controls” value in assay [8] was above 2 fold. Further, the “fold-change over parental HEK293” value in assay [10] amounted to 4.13 fold; in [11], 1.25 fold; in [12], 1.25 fold.

B3: anti-TMEM106B antibody TM-33 (antibody, V domains shown)
VH: EFQLQQSGPELVKPGASVKISCKASGYSFTDYNMNWVKQSNGKSLEWIGVINPNYGTTSYNQKFKGKATLTVDQSSSTAYMQLNSLTSEDSAVYYCASSYWGQGTLVTVSA
VL: DIVMTQSQKFMSTTVGDRVSITCKASQNVGTAVAWYQQKPGQSPKLLIYSASNRYTGVPDRFTGSGSGTDFTLTISNMQSEDLADYFCQQYSSYPYTFGGGTKLEIK
notes: mouse IgG from hybridoma
As for B3, the MFI in assay [1] is 298; in [2], 148; in [3], 202; in [4], 233; in assay [6] it was 366; in assay [7] it was 514. Further, the MFI in [9] was 12100; in [13] it was 1750; in [14], 5630; in [15], 651. Besides, the binding result in assay [5] is on record as “no binding”; in assay [16] it was “no binding (tested: 55 nM antigen)”. In addition, the “fold over negative controls” value in assay [8] is above 2 fold. In addition, the “fold-change over parental HEK293” value in [10] came to 10.2 fold; in assay [11], 7.74 fold; in [12], 45.8 fold.

B4: anti-TMEM106B antibody TM-49 (antibody, V domains shown)
VH: QVQLQQPGAELVRPGSSVKLSCKASGYTFTRFWMHWVKQRPIQGLEWIGNIDPSDSQTHYNQKFKDKATLTVDKSSSTAYMQLSSLTSEDSAVYYCARLITVDYAMDYWGQGTSVTVSS
VL: QIVLTQSPAIMSASPGEKVTISCSASSSVSYMYWYQQKPGSSPKPWIHRTSNLASGVPVRFSGSGSGTSYSLTISSMEAEDAATYYCQQYHSYPPTFGAGTKLELK
notes: mouse IgG from hybridoma
For the molecule B4, the MFI in assay [1] came to 924; in [2], 187; in assay [3], 434; in assay [4] it was 291; in assay [6], 473; in [7] it was 613. Also, the MFI came to 16500 in assay [9], 3030 in assay [13], 15700 in assay [14] and 756 in assay [15]. In addition, the binding result is given as “no binding” in assay [17] and “no binding (tested: 55 nM antigen)” in [16]. In addition, the “fold over negative controls” value in assay [8] was above 2 fold. Also, the “fold-change over parental HEK293” value was determined as 15.6 fold in assay [10], 13.8 fold in assay [11] and 21.3 fold in assay [12].

B5: anti-TMEM106B antibody TM-15 (antibody, V domains shown)
VH: QVQLQQPGAEFVRPGASVKLSCKASGYTFTNYWITWVKQRPGHGLEWIGDIYPGSGNSNYNESFKRKATLTVDTSSSTAYMHLSSQTSEDSAVYFCARKAYGGFPYWGQGTLVTVSA
VL: DIQMTQSPASLSVSVGETVTITCRVSENIYNNLAWYQQKQEKSPQLLVFAATNLADGVPSRFSGSGSGTQFSLKINSLQSEDFGTYYCQHFWDTPFTFGSGTKLEIK
notes: mouse IgG from hybridoma
B5: the MFI in assay [1] was found to be 938; in assay [2], 660; in assay [3], 382; in assay [4], 470; in [6], 650; in assay [7], 1980. In addition, the MFI in assay [9] worked out at 63100; in assay [13], 2060; in assay [14], 14300; in assay [15] it was 584. The binding result in assay [5] is recorded as “no binding”; in [16] it was “no binding (tested: 55 nM antigen)”. Further, the “fold over negative controls” value in assay [8] is above 2 fold. Further, the “fold-change over parental HEK293” value in [10] came out at 31.4 fold; in [11], 57.7 fold; in assay [12], 46.8 fold.

B6: anti-TMEM106B antibody TM-31 (antibody, V domains shown)
VH: QVQLQQSGAELAKPGASVKVSCKASGYTFISYWMNWVKQRPGQGLEWIGYINPTSGYTRYNQKFKDKATLTADKSSSTAYMQLSSLTYEDSAVYYCARSPPTVVLIGYFDYWGQGTTLTVSS
VL: DIKMTQSPSSMYASLGERVTFTCKASQDINSYLSWFQQKPGKSPKTLIYRGNGLVDGVPSRFSGSGSGQDYSLTISSLEYEDMGIYYCLQYDEFPFTFASGTKLEIK
notes: mouse IgG from hybridoma
For B6, the MFI in [2] amounted to 799; in assay [3], 352; in assay [4], 325; in [6], 403; in [7] it was 527; in [9], 6060. The MFI in assay [13] stood at 1390; in assay [14], 3680; in assay [15], 596. In addition, the binding result is “no binding” in [5] and “no binding (tested: 55 nM antigen)” in assay [16]. For the same molecule, the “fold over negative controls” value in assay [8] was above 2 fold. Besides, the results for the “fold-change over parental HEK293” value in assay [10], in assay [11] and in assay [12] were 22.1 fold, 64.7 fold and 68.7 fold, respectively.

B7: anti-TMEM106B antibody TM-8 (antibody, V domains shown)
VH: QIQLVQSGPELKKPGETVKISCKASGYTFTDYPMHWVKQAPGKGFKWMGVIYTDTGEPKYAEVFKGRFAFSLETSASTAYLQINNLKNEDTATYFCVRRLAYWGQGTLVTVSA
VL: DIKMTQSPSSMYASLGERVTITCKASQDINSYLSWFQQKPGKSPKTLIFRANRLVDGVPSRFSGSGSGQDYSLTISSLEYEDMGIYYCLQYDEFPLTFGAGTKLEMK
notes: mouse IgG from hybridoma
Turning to B7, the MFI in assay [1] was found to be 554; in [2], 568; in assay [3], 304; in assay [4], 370; in assay [6] it was 393; in assay [7], 492. Moreover, the MFI stood at 465 in [9], 305 in assay [13], 317 in assay [14] and 301 in assay [15]. In addition, the results for the binding result in assay [5] and in [16] were “no binding” and “no binding (tested: 55 nM antigen)”, respectively. For the same molecule, in [8], the “fold over negative controls” value is above 2 fold. Moreover, the “fold-change over parental HEK293” value in assay [10] worked out at 2.1 fold; in [11], 2.62 fold; in [12], 1.63 fold.
